# According to patent US20220259318A1 (Hoffmann-La Roche, published 2022):
# Where “and” joins values, the source holds several entries; their conditions need not be identical. Equal values may be shown once.
# Tests used:
# [1] = molecular target: T1, human GPRC5D (human, UniProt Q9NZD1 1-345); test: cell-based or functional assay
# [2] = molecular target: T1, human GPRC5D; test: cell ELISA, CHO hu GPRC5D (EC/IC50 rel)
# Protocol: Stable transfected CHO clones expressing either human GPRCSD or cynomolgus GPRCSD or murine GPRCSD or human GPRCSA were used to analyze the binding of potential lead candidate antibodies as IgGs. In detail, 10⁴ cells (viability≥98%) were seeded into 384 well-microtiter plates (BD Poly D-Lysin, #356662, volume: 25 μl/well) using fresh culture medium. After overnight incubation at 37° C., 25 μl/well dilutions of antibodies were added (15×1:3 dilutions in 1×PBS, assay conc. starts at 30 μg/ml) to the cells for 2 hours at 4° C. After one washing step using 90 μl/well PBST (10×PBS, Roche, #11666789001+0.1% Tween 20), cells were subsequently fixed by the addition of 50 μl/well 0.05% glutaraldehyde (Sigma Cat. No: G5882 in 1×PBS) for 10 min at room temperature (RT). After three additional washing steps using 90 μl/well PBST, secondary antibodies were added for detection: for human antibodies goat anti-human Ig a chain antibody HRP conjugate (Millipore #AP502P) diluted 1:2000 in blocking buffer (1×PBS (Roche #11666789001)+2% BSA (Bovine Serum Albumin Fraction V, fatty acid free, Roche, #10735086001)+0.05% Tween 20) was used (25 μl/well). […] After incubation for 1 h at RT and three additional washing steps using 90 μl/well PBST, 25 μl/well TMB substrate was added (Roche order no. 11835033001) for 10 min and color development to final ODs was determined by measurement at 370 nm/492 nm.
# For the characterization of the humanization variants of the VH and VL domains of the GPRC5D binders the ELISA protocol as described above was used (see Example 7). The data are summarized in the table 10 for the humanization variants of 5E11 and in table 11 for the humanization variants of 5F11.
# T1 sequence (Q9NZD1 whole entry): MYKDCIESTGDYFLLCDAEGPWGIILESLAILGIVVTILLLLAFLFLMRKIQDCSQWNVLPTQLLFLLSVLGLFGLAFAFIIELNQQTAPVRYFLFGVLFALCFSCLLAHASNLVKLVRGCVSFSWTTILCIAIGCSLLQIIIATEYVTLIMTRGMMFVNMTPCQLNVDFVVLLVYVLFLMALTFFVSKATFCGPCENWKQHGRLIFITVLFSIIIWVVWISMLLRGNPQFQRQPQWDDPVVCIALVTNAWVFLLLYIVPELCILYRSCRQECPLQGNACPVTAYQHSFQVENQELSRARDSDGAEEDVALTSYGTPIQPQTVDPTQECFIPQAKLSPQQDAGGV
"CAR-J2 EC50 [ng/mL] (PGLALA-CAR-J activation, L363 target cells) [1]",EC50 [2],Binder
23.5,0.004 µg/mL and 0.03 nM,"P1AE5739 (antibody, V domains shown, Humanized 5F11 IgG; PGLALA Fc implied by the CAR-J assay; also called 5F11_VH1b + 5F11_VL1a) VH: EVQLVESGGGVVQPGRSLRLSCAASGFSFSNYGMAWVRQAPGKGLEWVASISTGGGNTYYRDSVKGRFTISRDNAKNTLYLQMNSLRAEDTAVYYCTRHDRGGLYWGQGTMVTVSS VL: DIVMTQSPLSLPVTPGEPASISCRSSKSLLHSNGITYVYWYLQKPGQSPQVLIYRMSNLASGVPDRFSGSGSGTDFTLKISRVEAEDVGVYHCGQLLENPYTFGQGTKLEIK"
61.9,0.0061 µg/mL and 0.04 nM,"P1AE5742 (antibody, V domains shown, Humanized 5F11 IgG; PGLALA Fc implied by the CAR-J assay; also called 5F11_VH1b + 5F11_VL2b) VH: EVQLVESGGGVVQPGRSLRLSCAASGFSFSNYGMAWVRQAPGKGLEWVASISTGGGNTYYRDSVKGRFTISRDNAKNTLYLQMNSLRAEDTAVYYCTRHDRGGLYWGQGTMVTVSS VL: DIVMTQSPDSLAVSLGERATINCKSSKSLLHSNGITYVYWYQQKPGQPPKLLIYRMSNLASGVPDRFSGSGSGTDFTLTISSLQAEDVAVYHCGQLLENPYTFGQGTKLEIK"
82.1,0.0066 µg/mL and 0.04 nM,"P1AE5735 (antibody, V domains shown, Humanized 5F11 IgG; PGLALA Fc implied by the CAR-J assay; also called 5F11_VH1a + 5F11_VL1b) VH: QVQLVESGGGVVQPGRSLRLSCAASGFSFSNYGMAWVRQAPGKGLEWVASISTGGGNTYYRDSVKGRFTISRDNSKNTLYLQMNSLRAEDTAVYYCTRHDRGGLYWGQGTMVTVSS VL: DIVMTQSPLSLPVTPGEPASISCRSSKSLLHSNGITYVYWYLQKPGKSPQVLIYRMSNLASGVPDRFSGSGSGTDFTLKISRVEAEDVGVYHCGQLLENPYTFGQGTKLEIK"
6.44,0.0124 µg/mL and 0.08 nM,"P1AE5751 (antibody, V domains shown, Humanized 5F11 IgG; PGLALA Fc implied by the CAR-J assay; also called 5F11_VH1d + 5F11_VL1b) VH: EVQLVESGGGVVQPGRSLRLSCAASGFSFSNYGMAWVRQAPGKGLEWVASISTGGGNTYYADSVKGRFTISRDNAKNTLYLQMNSLRAEDTAVYYCTRHDRGGLYWGQGTMVTVSS VL: DIVMTQSPLSLPVTPGEPASISCRSSKSLLHSNGITYVYWYLQKPGKSPQVLIYRMSNLASGVPDRFSGSGSGTDFTLKISRVEAEDVGVYHCGQLLENPYTFGQGTKLEIK"
84.2,0.0046 µg/mL and 0.03 nM,"P1AE5762 (antibody, V domains shown, Humanized 5F11 IgG; PGLALA Fc implied by the CAR-J assay; also called 5F11_VH2d + 5F11_VL2a) VH: EVQLVESGGGLVQPGGSLRLSCAASGFSFSNYGMAWVRQAPGKGLEWVASISTGGGNTYYADSVKGRFTISRDNAKNTLYLQMNSLRAEDTAVYYCTRHDRGGLYWGQGTMVTVSS VL: DIVMTQSPLSLPVTPGEPASISCRSSKSLLHSNGITYVYWYLQKPGQSPQLLIYRMSNRASGVPDRFSGSGSGTDFTLKISRVEAEDVGVYHCGQLLENPYTFGQGTKLEIK"
190,0.004 µg/mL and 0.03 nM,"P1AE5760 (antibody, V domains shown, Humanized 5F11 IgG; PGLALA Fc implied by the CAR-J assay; also called 5F11_VH2d + 5F11_VL1a) VH: EVQLVESGGGLVQPGGSLRLSCAASGFSFSNYGMAWVRQAPGKGLEWVASISTGGGNTYYADSVKGRFTISRDNAKNTLYLQMNSLRAEDTAVYYCTRHDRGGLYWGQGTMVTVSS VL: DIVMTQSPLSLPVTPGEPASISCRSSKSLLHSNGITYVYWYLQKPGQSPQVLIYRMSNLASGVPDRFSGSGSGTDFTLKISRVEAEDVGVYHCGQLLENPYTFGQGTKLEIK"
1.38,0.0037 µg/mL and 0.02 nM,"P1AE5736 (antibody, V domains shown, Humanized 5F11 IgG; PGLALA Fc implied by the CAR-J assay; also called 5F11_VH1a + 5F11_VL2a) VH: QVQLVESGGGVVQPGRSLRLSCAASGFSFSNYGMAWVRQAPGKGLEWVASISTGGGNTYYRDSVKGRFTISRDNSKNTLYLQMNSLRAEDTAVYYCTRHDRGGLYWGQGTMVTVSS VL: DIVMTQSPLSLPVTPGEPASISCRSSKSLLHSNGITYVYWYLQKPGQSPQLLIYRMSNRASGVPDRFSGSGSGTDFTLKISRVEAEDVGVYHCGQLLENPYTFGQGTKLEIK"
170,0.0078 µg/mL and 0.05 nM,"P1AE5756 (antibody, V domains shown, Humanized 5F11 IgG; PGLALA Fc implied by the CAR-J assay; also called 5F11_VH2b + 5F11_VL1b) VH: EVQLVESGGGLVQPGGSLRLSCAASGFSFSNYGMAWVRQAPGKGLEWVASISTGGGNTYYRDSVKGRFTISRDNAKNTLYLQMNSLRAEDTAVYYCTRHDRGGLYWGQGTMVTVSS VL: DIVMTQSPLSLPVTPGEPASISCRSSKSLLHSNGITYVYWYLQKPGKSPQVLIYRMSNLASGVPDRFSGSGSGTDFTLKISRVEAEDVGVYHCGQLLENPYTFGQGTKLEIK"
8.96,0.0063 µg/mL and 0.04 nM,"P1AE5740 (antibody, V domains shown, Humanized 5F11 IgG; PGLALA Fc implied by the CAR-J assay; also called 5F11_VH1b + 5F11_VL1b) VH: EVQLVESGGGVVQPGRSLRLSCAASGFSFSNYGMAWVRQAPGKGLEWVASISTGGGNTYYRDSVKGRFTISRDNAKNTLYLQMNSLRAEDTAVYYCTRHDRGGLYWGQGTMVTVSS VL: DIVMTQSPLSLPVTPGEPASISCRSSKSLLHSNGITYVYWYLQKPGKSPQVLIYRMSNLASGVPDRFSGSGSGTDFTLKISRVEAEDVGVYHCGQLLENPYTFGQGTKLEIK"
20.6,0.0094 µg/mL and 0.06 nM,"P1AE5750 (antibody, V domains shown, Humanized 5F11 IgG; PGLALA Fc implied by the CAR-J assay; also called 5F11_VH1d + 5F11_VL1a) VH: EVQLVESGGGVVQPGRSLRLSCAASGFSFSNYGMAWVRQAPGKGLEWVASISTGGGNTYYADSVKGRFTISRDNAKNTLYLQMNSLRAEDTAVYYCTRHDRGGLYWGQGTMVTVSS VL: DIVMTQSPLSLPVTPGEPASISCRSSKSLLHSNGITYVYWYLQKPGQSPQVLIYRMSNLASGVPDRFSGSGSGTDFTLKISRVEAEDVGVYHCGQLLENPYTFGQGTKLEIK"
74.6,0.0037 µg/mL and 0.02 nM,"P1AE5761 (antibody, V domains shown, Humanized 5F11 IgG; PGLALA Fc implied by the CAR-J assay; also called 5F11_VH2d + 5F11_VL1b) VH: EVQLVESGGGLVQPGGSLRLSCAASGFSFSNYGMAWVRQAPGKGLEWVASISTGGGNTYYADSVKGRFTISRDNAKNTLYLQMNSLRAEDTAVYYCTRHDRGGLYWGQGTMVTVSS VL: DIVMTQSPLSLPVTPGEPASISCRSSKSLLHSNGITYVYWYLQKPGKSPQVLIYRMSNLASGVPDRFSGSGSGTDFTLKISRVEAEDVGVYHCGQLLENPYTFGQGTKLEIK"
145,0.0029 µg/mL and 0.02 nM,"P1AE5757 (antibody, V domains shown, Humanized 5F11 IgG; PGLALA Fc implied by the CAR-J assay; also called 5F11_VH2b + 5F11_VL2a) VH: EVQLVESGGGLVQPGGSLRLSCAASGFSFSNYGMAWVRQAPGKGLEWVASISTGGGNTYYRDSVKGRFTISRDNAKNTLYLQMNSLRAEDTAVYYCTRHDRGGLYWGQGTMVTVSS VL: DIVMTQSPLSLPVTPGEPASISCRSSKSLLHSNGITYVYWYLQKPGQSPQLLIYRMSNRASGVPDRFSGSGSGTDFTLKISRVEAEDVGVYHCGQLLENPYTFGQGTKLEIK"
509,0.0062 µg/mL and 0.04 nM,"P1AE5752 (antibody, V domains shown, Humanized 5F11 IgG; PGLALA Fc implied by the CAR-J assay; also called 5F11_VH1d + 5F11_VL2a) VH: EVQLVESGGGVVQPGRSLRLSCAASGFSFSNYGMAWVRQAPGKGLEWVASISTGGGNTYYADSVKGRFTISRDNAKNTLYLQMNSLRAEDTAVYYCTRHDRGGLYWGQGTMVTVSS VL: DIVMTQSPLSLPVTPGEPASISCRSSKSLLHSNGITYVYWYLQKPGQSPQLLIYRMSNRASGVPDRFSGSGSGTDFTLKISRVEAEDVGVYHCGQLLENPYTFGQGTKLEIK"
152,0.0078 µg/mL and 0.05 nM,"P1AE5755 (antibody, V domains shown, Humanized 5F11 IgG; PGLALA Fc implied by the CAR-J assay; also called 5F11_VH2b + 5F11_VL1a) VH: EVQLVESGGGLVQPGGSLRLSCAASGFSFSNYGMAWVRQAPGKGLEWVASISTGGGNTYYRDSVKGRFTISRDNAKNTLYLQMNSLRAEDTAVYYCTRHDRGGLYWGQGTMVTVSS VL: DIVMTQSPLSLPVTPGEPASISCRSSKSLLHSNGITYVYWYLQKPGQSPQVLIYRMSNLASGVPDRFSGSGSGTDFTLKISRVEAEDVGVYHCGQLLENPYTFGQGTKLEIK"
41.5,0.0055 µg/mL and 0.04 nM,"P1AE5734 (antibody, V domains shown, Humanized 5F11 IgG; PGLALA Fc implied by the CAR-J assay; also called 5F11_VH1a + 5F11_VL1a) VH: QVQLVESGGGVVQPGRSLRLSCAASGFSFSNYGMAWVRQAPGKGLEWVASISTGGGNTYYRDSVKGRFTISRDNSKNTLYLQMNSLRAEDTAVYYCTRHDRGGLYWGQGTMVTVSS VL: DIVMTQSPLSLPVTPGEPASISCRSSKSLLHSNGITYVYWYLQKPGQSPQVLIYRMSNLASGVPDRFSGSGSGTDFTLKISRVEAEDVGVYHCGQLLENPYTFGQGTKLEIK"
514,0.0107 µg/mL and 0.07 nM,"P1AE5746 (antibody, V domains shown, Humanized 5F11 IgG; PGLALA Fc implied by the CAR-J assay; also called 5F11_VH1c + 5F11_VL2a) VH: QVQLVESGGGVVQPGRSLRLSCAASGFSFSNYGMAWVRQAPGKGLEWVASISTGGGNTYYADSVKGRFTISRDNSKNTLYLQMNSLRAEDTAVYYCTRHDRGGLYWGQGTMVTVSS VL: DIVMTQSPLSLPVTPGEPASISCRSSKSLLHSNGITYVYWYLQKPGQSPQLLIYRMSNRASGVPDRFSGSGSGTDFTLKISRVEAEDVGVYHCGQLLENPYTFGQGTKLEIK"
